In article PMC4505599:

Molecular target: Mos1 transposase (T216A mutant) (Drosophila mauritiana)
Test: crystal structure; Mos1 IRL paired-end complex: full-length transposase mixed with duplex IRL DNA at 1:1.5 protein:DNA in 25 mM Tris pH 7.5, 250 mM KCl, 1 mM DTT; crystals grown at 17 °C; 3.1 Å

- stoichiometry N: 2
Substance: Mos1 transposase (T216A mutant) (enzyme)
